The record followed here is patent publication US20170158755A1.

Usually Kd stands for the equilibrium constant for the complex coming apart. A high value points to a looser complex. A word on the koff: it is the first-order rate constant of dissociation. Low readings indicate slow dissociation, high ones fast dissociation. A word on the kon: it is the second-order rate constant of association. A high value points to faster complex formation.

Experiment [1] has as its target His-LAMA4 as used in Example 6 (species not stated) (Homo sapiens (Human)) (UniProt Q16363). As to the kind of experiment: ForteBio BLI, LAMA-His on anti-His sensor, antibody 16.7 nM. On the technique in general: In BLI a coated tip is dipped into the sample, and binding shifts an interference pattern.
Experiment [2] has the same target. Description: ForteBio BLI, LAMA-His on anti-His sensor, antibody 33.3 nM.
The target is the same in experiment [3]. Description: ForteBio BLI, LAMA-His on anti-His sensor, antibody 8.33 nM.
Experiment [4] shares this target. As to the kind of experiment: Biacore SPR, Fab, steady-state approximation.
Experiment [5] shares this target. As to the kind of experiment: Biacore SPR, Fab over His-laminin-α4 captured on anti-6xHis. In general terms: Surface plasmon resonance follows binding to a sensor surface in real time, without labels.
Experiment [6] shares this target. Description: Biacore SPR, Fab over His-laminin-α4 captured on anti-6xHis; Fab, not IgG; kinetic fit.
The target is the same in experiment [7]. Description: Biacore, steady-state approximation; IgG loaded on anti-human Fc sensor, free laminin α4 as analyte; IgG on anti-human Fc sensor, free laminin α4 as analyte; steady state.
Experiment [8] shares this target. As to the kind of experiment: Biacore, steady-state approximation; IgG loaded on anti-human Fc sensor, free laminin α4 as analyte.

B1: chimeric 19C12 antibody (antibody, V domains shown)
VH: QVQLQQSGAELVKPGASVKISCKASGYAFSTYWMNWVKQRPGEGLEWIGQIYPGDGDTNYNGKFKGKATLTADKSSSTAYMQLSSLTSEDSAVYFCARSDGYYDYWGQGTTLTVSS
VL: NIVLTQSPASLAVSLGQRATISCRASESVDSYGTSFMHWYQQKPGQPPKLLICLASSLESGVPARFSGSGSRTDFTLTIDPVEADDAATYYCQQNNEDPPTFGAGTKLELKR
Consider B1, for which, in experiment [1], the Kd was found to be 0.0538 nM, the Response came out at 1.27, the koff was 0.000403 s⁻¹ and the kon came to 7.49e+06 M⁻¹ s⁻¹. In experiment [2], this molecule returned a Kd of 0.111 nM, a Response of 1.38, a koff of 0.000487 s⁻¹ and a kon of 4.37e+06 M⁻¹ s⁻¹. In experiment [3], the Kd was 0.0126 nM, the Response was determined as 1.15, the koff turned out to be 0.000251 s⁻¹ and the kon is 2e+07 M⁻¹ s⁻¹.

B2: humanized 19C12 antibody H2L6 (antibody, V domains shown)
VH: QVQLQQSGAELVKPGASVKVSCKASGYAFSTYWMNWVRQAPGQGLEWIGQIYPGDGDTNYNGKFKGRVTITADKSTSTAYMELSSLRSEDTAVYFCARSDGYYDYWGQGTTVTVSS
VL: DIVLTQSPASLAVSLGERATISCRASESVDSYGTSFMHWYQQKPGQPPKLLISLASSLESGVPARFSGSGSGTDFTLTISPVEAEDAATYYCQQNNEDPPTFGAGTKLEIKR
On to B2, for which, in experiment [2], the Kd is 0.123 nM, the Response turned out to be 1.26, the off-rate constant (koff) amounted to 0.000585 s⁻¹ and the kon was determined as 4.75e+06 M⁻¹ s⁻¹. In experiment [3], this molecule returned a Kd of 0.0154 nM, a Response of 1.13, a koff of 0.000308 s⁻¹ and a kon of 2e+07 M⁻¹ s⁻¹.

B3: Fab fragment of chimeric 19C12 (Fab, V domains shown)
VH: QVQLQQSGAELVKPGASVKISCKASGYAFSTYWMNWVKQRPGEGLEWIGQIYPGDGDTNYNGKFKGKATLTADKSSSTAYMQLSSLTSEDSAVYFCARSDGYYDYWGQGTTLTVSS
VL: NIVLTQSPASLAVSLGQRATISCRASESVDSYGTSFMHWYQQKPGQPPKLLICLASSLESGVPARFSGSGSRTDFTLTIDPVEADDAATYYCQQNNEDPPTFGAGTKLELKR
For B3, the Kd in experiment [4] is 0.98 nM; in experiment [5], 0.62 nM. For the same molecule, the koff in experiment [5] is 0.0059 s⁻¹. The kon in experiment [6] is 9.5e+06 M⁻¹ s⁻¹.

B4: humanized 19C12 antibody H2L3 (antibody, V domains shown)
VH: QVQLQQSGAELVKPGASVKVSCKASGYAFSTYWMNWVRQAPGQGLEWIGQIYPGDGDTNYNGKFKGRVTITADKSTSTAYMELSSLRSEDTAVYFCARSDGYYDYWGQGTTVTVSS
VL: NIVLTQSPASLAVSLGERATISCRASESVDSYGTSFMHWYQQKPGQPPKLLICLASSLESGVPARFSGSGSRTDFTLTIDPVEAEDAATYYCQQNNEDPPTFGAGTKLEIKR
On to B4, for which, in experiment [1], the Kd amounted to 0.0507 nM, the Response is 1.34, the koff amounted to 0.000363 s⁻¹ and the kon stood at 7.16e+06 M⁻¹ s⁻¹. In experiment [2], this molecule gave a Kd of 0.115 nM, a Response of 1.54, a koff of 0.000493 s⁻¹ and a kon of 4.29e+06 M⁻¹ s⁻¹. Besides, in experiment [3], the Kd was found to be 0.0124 nM, the Response came out at 1.23, the koff worked out at 0.000256 s⁻¹ and the kon stood at 2.07e+07 M⁻¹ s⁻¹. The molecule also yielded a Kd in experiment [7] of 1.86 nM.

B5: Fab fragment of humanized 19C12 H2L3 (Fab, V domains shown)
VH: QVQLQQSGAELVKPGASVKVSCKASGYAFSTYWMNWVRQAPGQGLEWIGQIYPGDGDTNYNGKFKGRVTITADKSTSTAYMELSSLRSEDTAVYFCARSDGYYDYWGQGTTVTVSS
VL: NIVLTQSPASLAVSLGERATISCRASESVDSYGTSFMHWYQQKPGQPPKLLICLASSLESGVPARFSGSGSRTDFTLTIDPVEAEDAATYYCQQNNEDPPTFGAGTKLEIKR
Regarding B5, the Kd in experiment [4] stood at 1.9 nM. Besides, in experiment [5], the Kd came to 0.78 nM, the koff turned out to be 0.0077 s⁻¹ and the kon is 9.8e+06 M⁻¹ s⁻¹.

B6: humanized 19C12 antibody H2L4 (antibody, V domains shown)
VH: QVQLQQSGAELVKPGASVKVSCKASGYAFSTYWMNWVRQAPGQGLEWIGQIYPGDGDTNYNGKFKGRVTITADKSTSTAYMELSSLRSEDTAVYFCARSDGYYDYWGQGTTVTVSS
VL: NIVLTQSPASLAVSLGERATISCRASESVDSYGTSFMHWYQQKPGQPPKLLISLASSLESGVPARFSGSGSGTDFTLTISPVEAEDAATYYCQQNNEDPPTFGAGTKLEIKR
In experiment [1], B6 gave a Kd of 0.0227 nM, a Response of 1.26, a koff of 0.000227 s⁻¹ and a kon of 9.98e+06 M⁻¹ s⁻¹. In experiment [2], this molecule showed a Kd of 0.127 nM, a Response of 1.25, an off-rate constant (koff) of 0.00062 s⁻¹ and a kon of 4.87e+06 M⁻¹ s⁻¹. Besides, in experiment [3], the Kd is 0.0161 nM, the Response was found to be 1.18, the koff was 0.000268 s⁻¹ and the kon is 1.67e+07 M⁻¹ s⁻¹.

B7: Fab fragment of humanized 19C12 H2L6 (Fab, V domains shown)
VH: QVQLQQSGAELVKPGASVKVSCKASGYAFSTYWMNWVRQAPGQGLEWIGQIYPGDGDTNYNGKFKGRVTITADKSTSTAYMELSSLRSEDTAVYFCARSDGYYDYWGQGTTVTVSS
VL: DIVLTQSPASLAVSLGERATISCRASESVDSYGTSFMHWYQQKPGQPPKLLISLASSLESGVPARFSGSGSGTDFTLTISPVEAEDAATYYCQQNNEDPPTFGAGTKLEIKR
As to B7, the Kd in experiment [4] was 8.4 nM.

B8: Fab fragment of humanized 19C12 H3L6 (Fab, V domains shown)
VH: EVQLQQSGAELVKPGASVKVSCKASGYAFSTYWMNWVRQAPGQGLEWIGQIYPGDGDTNYNGKFKGRVTITADKSTSTAYMELSSLRSEDTAVYFCARSDGYYDYWGQGTTVTVSS
VL: DIVLTQSPASLAVSLGERATISCRASESVDSYGTSFMHWYQQKPGQPPKLLISLASSLESGVPARFSGSGSGTDFTLTISPVEAEDAATYYCQQNNEDPPTFGAGTKLEIKR
B8: the dissociation constant (Kd) in experiment [4] turned out to be 7.2 nM.

B9: Fab fragment of humanized 19C12 H2L4 (Fab, V domains shown)
VH: QVQLQQSGAELVKPGASVKVSCKASGYAFSTYWMNWVRQAPGQGLEWIGQIYPGDGDTNYNGKFKGRVTITADKSTSTAYMELSSLRSEDTAVYFCARSDGYYDYWGQGTTVTVSS
VL: NIVLTQSPASLAVSLGERATISCRASESVDSYGTSFMHWYQQKPGQPPKLLISLASSLESGVPARFSGSGSGTDFTLTISPVEAEDAATYYCQQNNEDPPTFGAGTKLEIKR
B9 returned a Kd in experiment [4] of 7.1 nM.

B10: humanized 19C12 antibody H3L6 (antibody, V domains shown)
VH: EVQLQQSGAELVKPGASVKVSCKASGYAFSTYWMNWVRQAPGQGLEWIGQIYPGDGDTNYNGKFKGRVTITADKSTSTAYMELSSLRSEDTAVYFCARSDGYYDYWGQGTTVTVSS
VL: DIVLTQSPASLAVSLGERATISCRASESVDSYGTSFMHWYQQKPGQPPKLLISLASSLESGVPARFSGSGSGTDFTLTISPVEAEDAATYYCQQNNEDPPTFGAGTKLEIKR
In experiment [1], B10 had a Kd of 0.0626 nM, a Response of 1.21, a dissociation rate constant (koff) of 0.000501 s⁻¹ and a kon of 8.01e+06 M⁻¹ s⁻¹. Also, in experiment [2], the Kd was determined as 0.113 nM, the Response amounted to 1.38, the koff came out at 0.000553 s⁻¹ and the kon amounted to 4.89e+06 M⁻¹ s⁻¹. Also, in experiment [3], the Kd stood at 0.0135 nM, the Response stood at 1.2, the koff was 0.000286 s⁻¹ and the kon is 2.11e+07 M⁻¹ s⁻¹. Also, the Kd in experiment [8] came out at 1.36 nM.
